B1: nanobody B9 (VHH)
VHH: QVQLQESGGGLVQAGGSLRLSCTASGRTFSNTVMGWFRQAPGKEREFLAHILWSGGLAYYADSVKGRFTISRDNAKNIVYLQMNSLKPEDTAVYYCAARDFGFGNNYDYWGQGTQVTVSS
notes: From a phage library (pMES4 phagemid) of an alpaca immunized with Pf12p D1D2; also called Nb B9; source: E. coli WK6, periplasmic extract, purified (HisTrap, SEC)
B2: nanobody G6 (VHH)
VHH: QVQLQESGGGLVQPGGSLRLSCEVSGSIFSIDAMAWYRQAPGKQRELVAAILSGGSTNYADSVKGRFAISRDNAKNTGYLQMNSLKPEDTAVYYCNAEGRVSGWGPTEYDYWGQGTQVTVSS
notes: From a phage library (pMES4 phagemid) of an alpaca immunized with Pf12p D1D2; source: E. coli WK6, periplasmic extract, purified (HisTrap, SEC)
B3: nanobody F7 (VHH)
VHH: QVQLQESGGGLVQPGGSLRLSCAASGSAFSRVAMGWYRQAPGKLREYVADITYGGATDYADSVKGRFTISRDNAKNTIYLQMDSLKPEDTAVYYCNLVPPIGGYWGQGTQVTVSS
notes: as for B2
B4: nanobody B2 (VHH)
VHH: QVQLQESGGGLVQPGGSLRLSCAASGSAFSRVAMGWYRQAPGKLREYVADITRGGTTDYADSVKGRFTISRDNAKNTIYLQMDSLKPEDTAVYYCNLVPPIRGGYWGQGTQVTVSS
notes: as for B2
B5: nanobody C12 (VHH)
VHH: B4 VHH with I78V, Y79F, L97S
notes: as for B2
B6: nanobody A10 (VHH)
VHH: QVQLQESGGGLVQPGGSLRLSCAASGIIFSSNTMGWYRQAPGKQRELVASFSGETGANYADSVKGRFIIRRDNAKNAVYLLMNSLKPDDTAAYYCHADRFGTDYWGQGTQVTVSS
notes: as for B2
B7: nanobody D9 (VHH)
VHH: QVQLQESGGGLVQPGGSLRLSCAASGIIFSSHVMGWYRQAPGKQRELVASFSGDTGAKYADSVKGRFIIRRENAKNMVTLYLQMNSLKPEDTAAYYCHVDRFGTEYWGQGTQVTVSS
notes: as for B2
B8: nanobody B12 (VHH)
VHH: QVQLQESGGGLVQAGGSLRLSCAASGRTFSSLTMGWFRQAPGKEREFVAGNAWNWSDGTTYYADSVRGRFTISRDNAKKTVYLQMNSLKPEDTAVYYCACAGDRPRVRVPVNSNDYDYWGQGTQVTVSS
notes: as for B2
B9: nanobody H7 (VHH)
VHH: QVQLQESGGGLVQAGGSLRLSCAASGRTSSSYAVAWFRQAPGKERQFVATIGYDGVTSYYEDSVEGRFTISRDNAKSMVYLQMNSLKPEDTAVYYCGRDRVPGHTWLARPSQADFGSWGQGTQVTVSS
notes: as for B2
B10: nanobody C4 (VHH)
VHH: QVQLQESGGGLVQPGESLRLSCAASTSIFTVYTMGWYRQAPGKLREWVADVTVGDNRDYVDSVKGRFTISRDNATNTVYLQMNNVKPEDTAVYYCNRVPPGPSGSWGQGTQVTVSS
notes: as for B2
B11: Pf12 D1D2 (domain or fragment, Plasmodium falciparum, UniProt C6KSX0 28-304, looked up)
chain: NLTCDFNDVYKLEFHPNQQTSVTKLCNLTPNVLEKVTIKCGSDKLNYNLYPPTCFEEVYASRNMMHLKKIKEFVIGSSMFMRRSLTPNKINEVSFRIPPNMMPEKPIYCFCENKKTITINGSNGNPSSKKDIINRGIVEIIIPSLNEKVKGCDFTTSESTIFSKGYSINEISNKSSNNQQDIVCTVKAHANDLIGFKCPSNYSVEPHDCFVSAFNLSGKNENLENKLKLTNIIMDHYNNTFYSRLPSLISDNWKFFCVCSKDNEKKLVFTVEASISS
notes: Pf12, 6-cysteine protein of Plasmodium falciparum, residues N28-S304 (domains D1 and D2); Called untagged for the BLI; also called untagged Pf12 D1D2; recombinant Pf12; source: Sf21 insect cells (baculovirus), purified following the protocol of Pf12p with some modifications; not shown: His8, N-terminal, cleaved
B12: Pf12p D1D2 (domain or fragment)
chain: NGVCDFSSEGLSLLPEEKLDFSVSRNVDKLSDENNVRHCVHFSKGFEYLRFICPMRKDNYEGIEIRPVECFEYIHIEGREHKLSEILKGSLYEKSINDNIMTRDVFIPPTIYEDMFFECTCDNSLTFKNNMIGIRGIMKIHLKKNILYGCDFDHDEKLMKNKTAFTNFYDKQKILPLIGNNNNDDDNNDDDNNNDNNNNDNNNNNNNNNNNNNNNNNNNITCNVTIKKSQVYLGIICPDGYTLYPNDCFKNVIYDNNIIIPLKKIIPHDILYHQDKNKRITFASFTLNINENPPGFTCYCIKDQTNINNPLIVNFHFS

Consider 12 molecules from article PMC7886318, “Nanobody generation and structural characterization of Plasmodium falciparum 6-cysteine protein Pf12p” (Biochemical Journal, 2021).

Numbering of substitutions follows the chain as printed.

One assay has as its target T1, Pf41 D1D2 (Plasmodium falciparum, UniProt Q8I1Y0).
T1 construct: Pf41, 6-cysteine protein of Plasmodium falciparum, residues K21-S368 (domains D1 and D2); The Pf41 of the ELISA and of the SEC study; also called recombinant Pf41; source: Sf21 insect cells (baculovirus), purified following the protocol of Pf12p with some modifications
The experiment in a line: ELISA; MaxiSorp wells coated with 65 nM recombinant protein (Pf12p D1D2, Pf12p D2, Pf12 or Pf41) in PBS; 65 nM nanobody, 1 h at RT; bound nanobody detected with mouse anti-His and HRP-conjugated anti-mouse; duplicates. The conditions noted are these: both partners purified.
Regarding B1, the binding result is “no binding (tested: 65 nM)”.
For the molecule B2, the binding result was “no binding (tested: 65 nM)”.
For B3, the binding result was “no binding (tested: 65 nM)”.
B4: the binding result is recorded as “no binding (tested: 65 nM)”.
Turning to B5, the binding result is reported as “no binding (tested: 65 nM)”.
As for B6, the binding result is reported as “no binding (tested: 65 nM)”.
Consider B7, for which the binding result is “no binding (tested: 65 nM)”.
As to B8, the binding result is reported as “no binding (tested: 65 nM)”.
For the molecule B9, the binding result is recorded as “no binding (tested: 65 nM)”.
Take B10: the binding result is “no binding (tested: 65 nM)”.

Another assay addresses T2, Pf12p D1D2 (Plasmodium falciparum, UniProt C6KSX1).
T2 construct: also called recombinant Pf12p; untagged Pf12p D1D2; source: Sf21 insect cells (baculovirus, secreted), purified (Ni-NTA, TEV cleavage, SEC); not shown: His8, N-terminal, cleaved
The assay is described as above. Conditions: both partners purified.
For the molecule B9, the binding result is “binds”.

The next assay addresses T3, Pf12p D2 (Plasmodium falciparum (3D7 entry …, UniProt C6KSX1)).
T3 construct: Pf12p, 6-cysteine protein of Plasmodium falciparum, amino acids N168-S341: the C-terminal domain D2 only; Same vector and protocol as Pf12p D1D2; source: Sf21 insect cells (baculovirus, secreted), purified (Ni-NTA, TEV cleavage, SEC); not shown: His8, N-terminal, cleaved
The description is as above. Conditions: both partners purified.
On to B1, for which the binding result is on record as “binds”.
Consider B2, for which the binding result was “binds”.
Regarding B3, the binding result is recorded as “binds”.
With B4, the binding result was “binds”.
Take B5: the binding result is on record as “binds”.
Consider B9, for which the binding result is given as “binds”.
Turning to B10, the binding result is listed as “binds”.

Another assay addresses T4, Pf12 D1D2 (Plasmodium falciparum, UniProt C6KSX0).
T4 construct: Pf12, 6-cysteine protein of Plasmodium falciparum, residues N28-S304 (domains D1 and D2); Called untagged for the BLI; also called untagged Pf12 D1D2; recombinant Pf12; source: Sf21 insect cells (baculovirus), purified following the protocol of Pf12p with some modifications; not shown: His8, N-terminal, cleaved
The description is as above. Conditions: both partners purified.
Take B1: the binding result is on record as “no binding (tested: 65 nM)”.
As to B2, the binding result is “no binding (tested: 65 nM)”.
Still for that read-out and setting: with B3 the entry was “no binding (tested: 65 nM)”; with B4, “no binding (tested: 65 nM)”; with B5, “no binding (tested: 65 nM)”.
On to B6, for which the binding result is listed as “no binding (tested: 65 nM)”.
Consider B7, for which the binding result is recorded as “no binding (tested: 65 nM)”.
Take B8: the binding result is given as “no binding (tested: 65 nM)”.
Turning to B9, the binding result is “no binding (tested: 65 nM)”.
For the molecule B10, the binding result was “no binding (tested: 65 nM)”.

In a further assay the target is T5, His-tagged Pf41 (Plasmodium falciparum, UniProt Q8I1Y0 21-368).
T5 construct: Pf41, 6-cysteine protein of Plasmodium falciparum, residues K21-S368 (domains D1 and D2); The form loaded on Ni-NTA sensors for BLI; a TEV site stands between the His8 tag and Pf41; also called immobilized Pf41; source: Sf21 insect cells (baculovirus), purified following the protocol of Pf12p with some modifications; not shown: His8, N-terminal, kept
T5 sequence: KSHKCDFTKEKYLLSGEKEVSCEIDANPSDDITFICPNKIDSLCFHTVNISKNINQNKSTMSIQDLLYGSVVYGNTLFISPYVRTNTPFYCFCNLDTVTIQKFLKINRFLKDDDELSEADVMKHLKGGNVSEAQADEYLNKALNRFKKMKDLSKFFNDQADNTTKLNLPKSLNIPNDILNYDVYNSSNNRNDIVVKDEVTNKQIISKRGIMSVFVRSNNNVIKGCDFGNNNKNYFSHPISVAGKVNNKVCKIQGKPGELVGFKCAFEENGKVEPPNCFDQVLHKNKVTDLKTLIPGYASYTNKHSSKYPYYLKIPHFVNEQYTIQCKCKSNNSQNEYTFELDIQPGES
The experiment in a line: BLI; His-tagged Pf41 (10 or 20 ug/ml) loaded on Ni-NTA sensors; untagged Pf12 D1D2 or untagged Pf12p D1D2 in solution, 16-500 nM or 31-1000 nM; PBS pH 7.4, 0.1% BSA, 0.05% Tween-20, 25 C; 1:1 fit. The conditions noted are these: both partners purified.
For B11, the affinity, expressed as Kd, was 144 ± 22.6 nM.

The target in the next assay is T2, Pf12p D1D2. Briefly: far-Western, overlay or dot blot; purified Pf12p D1D2 run on 4-12% Bis-Tris SDS-PAGE under reduced and non-reduced conditions, blotted on PVDF, probed with 0.5 ug/ml nanobody, detected with HRP-conjugated goat anti-llama IgG. The conditions noted are these: both partners purified.
For B3, the binding result was “binds”.
On to B4, for which the binding result is “binds”.
For B5, the binding result was “binds”.

A further assay addresses Nine out of 10 nanobodies (alpaca). The experiment in a line: BLI; Octet RED96e; nanobodies (5 ug/ml) loaded on Ni-NTA sensors; untagged Pf12p D1D2 6-200 nM in solution (13-400 nM for A10); PBS pH 7.4, 0.1% BSA, 0.05% Tween-20, 25 C; global 1:1 fit; mean of three experiments.
Settings: not given
In turn, B12 came in with a dissociation constant Kd of 3 nM and a kon of 100000 M⁻¹ s⁻¹.

In the next assay the target is T2, Pf12p D1D2. The description is as above. The conditions noted are these: both partners purified.
On to B1, for which the binding result is “binds”.
In the case of B2, the binding result is listed as “binds”.
On to B6, for which the Kd was about 105 nM.
On to B7, for which the binding result was “binds”.
The same measure, in the same setting: with B8 the entry was “binds”; with B10, “binds”.
